This experiment has as its target Flag-tagged PITX2 R115L (mouse). Put plainly: co-IP; 293T cells co-transfected with PITX2-Flag (WT or R115L) and NRF2-HA or YAP1-HA; lysis in 50 mM Tris-HCl pH 7.5, 150 mM NaCl, 1% Nonidet P-40, 0.5% sodium deoxycholate; Flag immunoprecipitation at 4 °C overnight, six washes, blot with anti-HA; relative binding capacity = normalized IP-HA intensity / normalized IP-Flag intensity (ImageJ).

For two molecules, reduction of relative binding capacity against WT PITX2 results are on record in publication PMC8556256.

Molecule “HA-tagged YAP1 (from UniProt P46938 1-488) (natural protein)” showed a reduction of relative binding capacity against WT PITX2 of 89.1%.

B1: HA-tagged NRF2 (natural protein)
chain: MMDLELPPPGLQSQQDMDLIDILWRQDIDLGVSREVFDFSQRQKDYELEKQKKLEKERQEQLQKEQEKAFFAQFQLDEETGEFLPIQPAQHIQTDTSGSASYSQVAHIPKQDALYFEDCMQLLAETFPFVDDHESLALDIPSHAESSVFTAPHQAQSLNSSLEAAMTDLSSIEQDMEQVWQELFSIPELQCLNTENKQLADTTAVPSPEATLTEMDSNYHFYSSISSLEKEVGNCGPHFLHGFEDSFSSILSTDDASQLTSLDSNPTLNTDFGDEFYSAFIAEPSDGGSMPSSAAISQSLSELLDGTIEGCDLSLCKAFNPKHAEGTMEFNDSDSGISLNTSPSRASPEHSVESSIYGDPPPGFSDSEMEELDSAPGSVKQNGPKAQPAHSPGDTVQPLSPAQGHSAPMRESQCENTTKKEVPVSPGHQKAPFTKDKHSSRLEAHLTRDELRAKALHIPFPVEKIINLPVDDFNEMMSKEQFNEAQLALIRDIRRRGKNKVAAQNCRKRKLENIVELEQDLGHLKDEREKLLREKGENDRNLHLLKRRLSTLYLEVFSMLRDEDGKPYSPSEYSLQQTRDGNVFLVPKSKKPDTKKN
The molecule B1 came in with a reduction of relative binding capacity against WT PITX2 of 53.8%.
